According to patent US20260015399A1 (Boehringer Ingelheim, published 2026):
*1 amine or outer side, *2 acyl side, *3 side chain or, on linkers, in order; H or OH if unused. Side-chain parts run from the residue outwards. The star is where a group is joined. C18 diacid = O=C(O)CCCCCCCCCCCCCCCCC(=O)*; γGlu = O=C(O)[C@H](CCC(=O)[*:2])N[*:1]; Isovaleryl = CC(C)CC(=O)*; Ahx = NCCCCCC(=O)O

T1: human NPY2 receptor (human, UniProt P49146 1-381)
T1 sequence (looked up): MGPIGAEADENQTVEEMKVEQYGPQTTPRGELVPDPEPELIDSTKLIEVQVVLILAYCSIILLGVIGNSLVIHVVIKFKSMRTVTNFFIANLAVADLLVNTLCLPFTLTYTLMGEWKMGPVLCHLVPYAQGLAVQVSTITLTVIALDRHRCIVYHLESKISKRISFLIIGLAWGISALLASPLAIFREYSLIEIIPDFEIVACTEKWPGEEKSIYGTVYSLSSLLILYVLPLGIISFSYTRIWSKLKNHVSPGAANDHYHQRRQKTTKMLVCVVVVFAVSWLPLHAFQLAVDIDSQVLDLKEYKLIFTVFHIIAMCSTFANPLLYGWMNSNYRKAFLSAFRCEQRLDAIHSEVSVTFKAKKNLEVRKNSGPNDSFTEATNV

T2: human NPY1 receptor (human, UniProt P25929 1-384)
T2 sequence (looked up): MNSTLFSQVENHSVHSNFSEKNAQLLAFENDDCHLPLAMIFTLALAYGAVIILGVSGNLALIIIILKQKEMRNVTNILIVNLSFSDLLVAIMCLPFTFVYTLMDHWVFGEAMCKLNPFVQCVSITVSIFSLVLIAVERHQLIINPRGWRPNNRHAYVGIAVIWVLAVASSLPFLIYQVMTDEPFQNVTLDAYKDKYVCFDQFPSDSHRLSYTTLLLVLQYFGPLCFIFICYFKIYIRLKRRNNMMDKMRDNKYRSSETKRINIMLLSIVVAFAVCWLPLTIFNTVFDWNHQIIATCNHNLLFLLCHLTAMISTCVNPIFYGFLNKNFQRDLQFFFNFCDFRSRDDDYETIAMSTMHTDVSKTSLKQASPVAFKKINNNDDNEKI

T3: human NPY5 receptor (human, UniProt Q15761 1-445)
T3 sequence (looked up): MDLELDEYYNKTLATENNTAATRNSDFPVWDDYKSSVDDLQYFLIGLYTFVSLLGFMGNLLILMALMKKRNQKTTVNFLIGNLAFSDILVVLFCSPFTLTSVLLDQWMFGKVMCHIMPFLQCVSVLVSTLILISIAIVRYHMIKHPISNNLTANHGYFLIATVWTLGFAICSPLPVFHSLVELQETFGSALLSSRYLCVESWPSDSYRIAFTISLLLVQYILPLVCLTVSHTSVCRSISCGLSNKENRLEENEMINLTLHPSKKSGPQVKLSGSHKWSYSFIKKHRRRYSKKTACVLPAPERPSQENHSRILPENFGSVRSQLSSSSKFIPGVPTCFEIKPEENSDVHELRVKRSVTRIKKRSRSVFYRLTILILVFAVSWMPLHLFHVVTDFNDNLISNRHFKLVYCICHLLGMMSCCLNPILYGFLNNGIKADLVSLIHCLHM

B1: Compound 114 (peptide)
peptide: Isovaleryl-APAK([Ahx-γGlu-C18 diacid])PEEDATPEEIQRYYVSLRHYYNWLTRQRY-NH2
SMILES: CC[C@H](C)[C@H](NC(=O)[C@H](CCC(=O)O)NC(=O)[C@H](CCC(=O)O)NC(=O)[C@@H]1CCCN1C(=O)[C@@H](NC(=O)[C@H](C)NC(=O)[C@H](CC(=O)O)NC(=O)[C@H](CCC(=O)O)NC(=O)[C@H](CCC(=O)O)NC(=O)[C@@H]1CCCN1C(=O)[C@H](CCCCNC(=O)CCCCCNC(=O)CC[C@H](NC(=O)CCCCCCCCCCCCCCCCC(=O)O)C(=O)O)NC(=O)[C@H](C)NC(=O)[C@@H]1CCCN1C(=O)[C@H](C)NC(=O)CC(C)C)[C@@H](C)O)C(=O)N[C@@H](CCC(N)=O)C(=O)N[C@@H](CCCNC(=N)N)C(=O)N[C@@H](Cc1ccc(O)cc1)C(=O)N[C@@H](Cc1ccc(O)cc1)C(=O)N[C@H](C(=O)N[C@@H](CO)C(=O)N[C@@H](CC(C)C)C(=O)N[C@@H](CCCNC(=N)N)C(=O)N[C@@H](Cc1c[nH]cn1)C(=O)N[C@@H](Cc1ccc(O)cc1)C(=O)N[C@@H](Cc1ccc(O)cc1)C(=O)N[C@@H](CC(N)=O)C(=O)N[C@@H](Cc1c[nH]c2ccccc12)C(=O)N[C@@H](CC(C)C)C(=O)N[C@H](C(=O)N[C@@H](CCCNC(=N)N)C(=O)N[C@@H](CCC(N)=O)C(=O)N[C@@H](CCCNC(=N)N)C(=O)N[C@@H](Cc1ccc(O)cc1)C(N)=O)[C@@H](C)O)C(C)C
B2: Compound 118 (peptide)
peptide: Isovaleryl-APEK([Ahx-γGlu-C18 diacid])PPEDAEPEEIQRYYVSLRHYYNWLTRQRY-NH2
SMILES: CC[C@H](C)[C@H](NC(=O)[C@H](CCC(=O)O)NC(=O)[C@H](CCC(=O)O)NC(=O)[C@@H]1CCCN1C(=O)[C@H](CCC(=O)O)NC(=O)[C@H](C)NC(=O)[C@H](CC(=O)O)NC(=O)[C@H](CCC(=O)O)NC(=O)[C@@H]1CCCN1C(=O)[C@@H]1CCCN1C(=O)[C@H](CCCCNC(=O)CCCCCNC(=O)CC[C@H](NC(=O)CCCCCCCCCCCCCCCCC(=O)O)C(=O)O)NC(=O)[C@H](CCC(=O)O)NC(=O)[C@@H]1CCCN1C(=O)[C@H](C)NC(=O)CC(C)C)C(=O)N[C@@H](CCC(N)=O)C(=O)N[C@@H](CCCNC(=N)N)C(=O)N[C@@H](Cc1ccc(O)cc1)C(=O)N[C@@H](Cc1ccc(O)cc1)C(=O)N[C@H](C(=O)N[C@@H](CO)C(=O)N[C@@H](CC(C)C)C(=O)N[C@@H](CCCNC(=N)N)C(=O)N[C@@H](Cc1c[nH]cn1)C(=O)N[C@@H](Cc1ccc(O)cc1)C(=O)N[C@@H](Cc1ccc(O)cc1)C(=O)N[C@@H](CC(N)=O)C(=O)N[C@@H](Cc1c[nH]c2ccccc12)C(=O)N[C@@H](CC(C)C)C(=O)N[C@H](C(=O)N[C@@H](CCCNC(=N)N)C(=O)N[C@@H](CCC(N)=O)C(=O)N[C@@H](CCCNC(=N)N)C(=O)N[C@@H](Cc1ccc(O)cc1)C(N)=O)[C@@H](C)O)C(C)C

Legend:
human NPY2 receptor [1] = molecular target: T1, human NPY2 receptor; assay: cell-based or functional assay
human NPY1 receptor = molecular target: T2, human NPY1 receptor; assay: cell-based or functional assay
human NPY4 receptor = human NPY4 receptor (human, UniProt P50391 1-375); assay: cell-based or functional assay
human NPY4 receptor, sequence (P50391 whole entry): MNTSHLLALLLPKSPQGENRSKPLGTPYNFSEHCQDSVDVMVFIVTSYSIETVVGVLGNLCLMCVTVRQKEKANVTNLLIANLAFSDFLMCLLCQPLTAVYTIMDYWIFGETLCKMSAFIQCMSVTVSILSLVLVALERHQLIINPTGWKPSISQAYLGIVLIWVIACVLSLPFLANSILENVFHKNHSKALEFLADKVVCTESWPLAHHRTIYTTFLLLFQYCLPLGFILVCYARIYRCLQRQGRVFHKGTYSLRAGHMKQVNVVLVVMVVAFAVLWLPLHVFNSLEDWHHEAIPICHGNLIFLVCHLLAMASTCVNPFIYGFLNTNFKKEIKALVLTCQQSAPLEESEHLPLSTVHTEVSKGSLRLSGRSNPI

human NPY5 receptor = molecular target: T3, human NPY5 receptor; assay: cell-based or functional assay
human NPY2 receptor [2] = molecular target: T1, human NPY2 receptor; assay: RLB: displacement of 125I-PYY(1-36) from hNPY2R membranes

| Binder | EC50, HTRF cAMP Gi assay (human NPY2 receptor [1]) | EC50, HTRF cAMP Gi assay (human NPY1 receptor) | EC50, HTRF cAMP Gi assay (human NPY4 receptor) | EC50, HTRF cAMP Gi assay (human NPY5 receptor) | Ki (human NPY2 receptor [2]) |
| --- | --- | --- | --- | --- | --- |
| B1 | 0.186 nM | > 5000 nM | > 5000 nM | > 5000 nM | 0.95 nM |
| B2 | 0.161 nM | > 5000 nM | > 5000 nM | > 5000 nM | 1 nM |
